This note sets out measurements from article PMC12463012, “Sequence‐ and Docking‐Site‐Dependent Contributions to Multi‐Site Phosphorylation of an Intrinsically Disordered MAPK Substrate” (Advanced Science, 2025).

This data set deals with the molecule itself. Kind of data set: SEC-MALS; SEC-MALLS at 4 °C; 20 µL of JIP1^SH3 at 5.6 mg mL^-1 injected at 0.5 mL min^-1 on Superdex 200 10/300 GL in 50 mM HEPES pH 7.1, 150 mM NaCl, 2 mM DTT. (In general: In gel filtration, larger molecules generally elute earlier.)

B1: JIP1^SH3 (JIP1 IDR residues 1–450 linked to the SH3 domain of JIP1, residues 489–553, via a (GS)3G linker) (domain or fragment)
chain: GHMMAERESGGLGGGAASPPAASPFLGLHIASPPNFRLTHDISLEEFEDEDLSEITDECGISLQCKDTLSLRPPRAGLLSAGGGGAGSRLQAEMLQMDLIDATGDTPGAEDDEEDDDEERAARRPGAGPPKAESGQEPASRGQGQSQGQSQGPGSGDTYRPKRPTTLNLFPQVPRSQDTLNNNSLGKKHSWQDRVSRSSSPLKTGEQTPPHEHICLSDELPPQSGPAPTTDRGTSTDSPCRRSTATQMAPPGGPPAAPPGGRGHSHRDRIHYQADVRLEATEEIYLTPVQRPPDAAEPTSAFLPPTESRMSVSSDPDPAAYPSTAGRPHPSISEEEEGFDCLSSPERAEPPGGGWRGSLGEPPPPPRASLSSDTSALSYDSVKYTLVVDEHAQLELVSLRPCFGDYSDESDSATVYDNCASVSSPYESAIGEEYEEAPRPQPPACLSEDSTPDGSGSGSGQEQTHRAIFRFVPRHEDELELEVDDPLLVELQAEDYWYEAYNMRTGARGVFPAYYAIEVTKEPEH
notes: extension left at the N-terminus after TEV cleavage; (GS)3G linker that replaces residues 451-488 of JIP1; Residues 451-488 of JIP1 replaced by the glycine-serine linker because they are prone to aggregation; also called JIP1^SH3 dimer; not shown: thioredoxin, N-terminal, cleaved; His6, N-terminal, cleaved
With B1, the “stoichiometry N” value came to 2.

A word on the stoichiometry N: it is the number of molecules, sites or subunits per partner or assembly.
